According to patent US20250312499A1, “KISSPEPTIN RECEPTOR (KISS1R) TARGETED THERAPEUTICS AND USES THEREOF” (priority 2024, published 2025):
Numbered stars: 1 amine (or outer) side, 2 acyl side, 3 side chain; on linkers, the order of the positions; unused ones are H or OH. Square brackets hold non-standard residues; d marks the D form. * marks the point of attachment. X2 = 4‑amino‑1‑((3-fluoro-4-methylbenzyl)glycyl)piperidine‑4‑carboxylic acid, Cc1ccc(CN(CC(=O)N2CCC(N[*:1])(C(=O)[*:2])CC2)[*:3])cc1F; X7 = 4‑amino‑1‑(N-methylcarbamimidoyl)piperidine‑4‑carboxylic acid, CNC(=N)N1CCC(N[*:1])(C(=O)[*:2])CC1; DOTA = O=C(O)CN1CCN(CC(=O)O)CCN(CC(=O)*)CCN(CC(=O)O)CC1; Phe(4-CN) = N#Cc1ccc(C[C@H](N)C(=O)O)cc1; Phe(3-F) = N[C@@H](Cc1cccc(F)c1)C(=O)O; 2Nal = N[C@@H](Cc1ccc2ccccc2c1)C(=O)O; NH‑glycol = not defined here; ABA = not defined here; APM = not defined here; Ahx = NCCCCCC(=O)O; azaGly = NNC(=O)O

The binders below were run against human kisspeptin receptor (KISS1R) (human), Q969F8 (assay: radioligand competition, hKISS1R membranes; legend: A is <10 nM).
Chain of human kisspeptin receptor (KISS1R) (human), Q969F8 (Q969F8 whole entry): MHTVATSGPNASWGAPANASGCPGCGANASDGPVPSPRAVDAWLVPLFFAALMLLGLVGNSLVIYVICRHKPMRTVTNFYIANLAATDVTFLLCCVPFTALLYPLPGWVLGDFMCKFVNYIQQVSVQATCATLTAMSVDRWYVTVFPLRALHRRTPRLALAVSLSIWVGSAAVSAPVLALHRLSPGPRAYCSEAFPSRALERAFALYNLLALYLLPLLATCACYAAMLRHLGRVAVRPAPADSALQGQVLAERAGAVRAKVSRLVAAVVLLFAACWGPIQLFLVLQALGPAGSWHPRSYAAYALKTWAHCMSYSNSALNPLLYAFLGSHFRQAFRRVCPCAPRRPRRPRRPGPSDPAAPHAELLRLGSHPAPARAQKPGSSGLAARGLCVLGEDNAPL

Ki [nM] | Binder
< 10 | {DOTA-Ahx}-F[azaGly]L[X2]W-NH2 (SMILES Cc1ccc(CNCC(=O)N2CCC(NC(=O)[C@H](CC(C)C)NC(=O)NNC(=O)[C@H](Cc3ccccc3)NC(=O)CCCCCNC(=O)CN3CCN(CC(=O)O)CCN(CC(=O)O)CCN(CC(=O)O)CC3)(C(=O)N[C@@H](Cc3c[nH]c4ccccc34)C(N)=O)CC2)cc1F) [Compound 2]
< 10 | {DOTA-APM}-[dY][dH][dW]NTF[azaGly]L[X2]W-NH2 (reading uncertain) [Compound 33]
< 10 | {DOTA-APM}-[dY][dW]NT[Phe(3-F)][azaGly]L[X2]W-NH2 (reading uncertain) [Compound 34]
< 10 | {DOTA-Ahx}-NTF[azaGly]L[X2]W-NH2 (SMILES Cc1ccc(CNCC(=O)N2CCC(NC(=O)[C@H](CC(C)C)NC(=O)NNC(=O)[C@H](Cc3ccccc3)NC(=O)[C@@H](NC(=O)[C@H](CC(N)=O)NC(=O)CCCCCNC(=O)CN3CCN(CC(=O)O)CCN(CC(=O)O)CCN(CC(=O)O)CC3)[C@@H](C)O)(C(=O)N[C@@H](Cc3c[nH]c4ccccc34)C(N)=O)CC2)cc1F) [Compound 26]
< 10 | {DOTA-Ahx}-[dY]WNT[Phe(3-F)][azaGly]L[X2]W-NH2 (SMILES Cc1ccc(CNCC(=O)N2CCC(NC(=O)[C@H](CC(C)C)NC(=O)NNC(=O)[C@H](Cc3cccc(F)c3)NC(=O)[C@@H](NC(=O)[C@H](CC(N)=O)NC(=O)[C@H](Cc3c[nH]c4ccccc34)NC(=O)[C@@H](Cc3ccc(O)cc3)NC(=O)CCCCCNC(=O)CN3CCN(CC(=O)O)CCN(CC(=O)O)CCN(CC(=O)O)CC3)[C@@H](C)O)(C(=O)N[C@@H](Cc3c[nH]c4ccccc34)C(N)=O)CC2)cc1F) [Compound 35]
< 10 | {DOTA-Ahx}-[dY][dW]NTF[azaGly]L[X7]W-NH2 (SMILES CNC(=N)N1CCC(NC(=O)[C@H](CC(C)C)NC(=O)NNC(=O)[C@H](Cc2ccccc2)NC(=O)[C@@H](NC(=O)[C@H](CC(N)=O)NC(=O)[C@@H](Cc2c[nH]c3ccccc23)NC(=O)[C@@H](Cc2ccc(O)cc2)NC(=O)CCCCCNC(=O)CN2CCN(CC(=O)O)CCN(CC(=O)O)CCN(CC(=O)O)CC2)[C@@H](C)O)(C(=O)N[C@@H](Cc2c[nH]c3ccccc23)C(N)=O)CC1) [Compound 91]
< 10 | {DOTA-Ahx}-[dW]NTF[azaGly]L[X2]W-NH2 (SMILES Cc1ccc(CNCC(=O)N2CCC(NC(=O)[C@H](CC(C)C)NC(=O)NNC(=O)[C@H](Cc3ccccc3)NC(=O)[C@@H](NC(=O)[C@H](CC(N)=O)NC(=O)[C@@H](Cc3c[nH]c4ccccc34)NC(=O)CCCCCNC(=O)CN3CCN(CC(=O)O)CCN(CC(=O)O)CCN(CC(=O)O)CC3)[C@@H](C)O)(C(=O)N[C@@H](Cc3c[nH]c4ccccc34)C(N)=O)CC2)cc1F) [Compound 30]
< 10 | {HO‑PEG3‑C(:O)}-[dY]K(DOTA)NT[Phe(3-F)][azaGly]L[X2]W-NH2 [Compound 64]
< 10 | {DOTA-Ahx}-F[azaGly]L[X2]F-NH2 (SMILES Cc1ccc(CNCC(=O)N2CCC(NC(=O)[C@H](CC(C)C)NC(=O)NNC(=O)[C@H](Cc3ccccc3)NC(=O)CCCCCNC(=O)CN3CCN(CC(=O)O)CCN(CC(=O)O)CCN(CC(=O)O)CC3)(C(=O)N[C@@H](Cc3ccccc3)C(N)=O)CC2)cc1F) [Compound 55]
< 10 | {DOTA-Ahx}-[dY][dH][dW]NTF[azaGly]L[X2]W-NH2 (SMILES Cc1ccc(CNCC(=O)N2CCC(NC(=O)[C@H](CC(C)C)NC(=O)NNC(=O)[C@H](Cc3ccccc3)NC(=O)[C@@H](NC(=O)[C@H](CC(N)=O)NC(=O)[C@@H](Cc3c[nH]c4ccccc34)NC(=O)[C@@H](Cc3c[nH]cn3)NC(=O)[C@@H](Cc3ccc(O)cc3)NC(=O)CCCCCNC(=O)CN3CCN(CC(=O)O)CCN(CC(=O)O)CCN(CC(=O)O)CC3)[C@@H](C)O)(C(=O)N[C@@H](Cc3c[nH]c4ccccc34)C(N)=O)CC2)cc1F) [Compound 32]
< 10 | {DOTA}-KF[azaGly]L[X2]W-NH2 [Compound 37]
< 10 | {DOTA-ABA}-F[azaGly]L[X2]W-NH2 (reading uncertain) [Compound 50]
< 10 | {DOTA-Ahx}-[dY]KNT[Phe(3-F)][azaGly]L[X2]W-NH2 (SMILES Cc1ccc(CNCC(=O)N2CCC(NC(=O)[C@H](CC(C)C)NC(=O)NNC(=O)[C@H](Cc3cccc(F)c3)NC(=O)[C@@H](NC(=O)[C@H](CC(N)=O)NC(=O)[C@H](CCCCN)NC(=O)[C@@H](Cc3ccc(O)cc3)NC(=O)CCCCCNC(=O)CN3CCN(CC(=O)O)CCN(CC(=O)O)CCN(CC(=O)O)CC3)[C@@H](C)O)(C(=O)N[C@@H](Cc3c[nH]c4ccccc34)C(N)=O)CC2)cc1F) [Compound 27]
< 10 | {DOTA-NH‑glycol}-[dY][dW]NTF[azaGly]L[X2]W-NH2 (reading uncertain) [Compound 57]
< 10 | {DOTA-Ahx}-[dY][dW]NTF[azaGly]L[X2][Phe(4-CN)]-NH2 (SMILES Cc1ccc(CNCC(=O)N2CCC(NC(=O)[C@H](CC(C)C)NC(=O)NNC(=O)[C@H](Cc3ccccc3)NC(=O)[C@@H](NC(=O)[C@H](CC(N)=O)NC(=O)[C@@H](Cc3c[nH]c4ccccc34)NC(=O)[C@@H](Cc3ccc(O)cc3)NC(=O)CCCCCNC(=O)CN3CCN(CC(=O)O)CCN(CC(=O)O)CCN(CC(=O)O)CC3)[C@@H](C)O)(C(=O)N[C@@H](Cc3ccc(C#N)cc3)C(N)=O)CC2)cc1F) [Compound 104]
< 10 | {DOTA-Ahx}-[dY]ENT[Phe(3-F)][azaGly]L[X2]W-NH2 (SMILES Cc1ccc(CNCC(=O)N2CCC(NC(=O)[C@H](CC(C)C)NC(=O)NNC(=O)[C@H](Cc3cccc(F)c3)NC(=O)[C@@H](NC(=O)[C@H](CC(N)=O)NC(=O)[C@H](CCC(=O)O)NC(=O)[C@@H](Cc3ccc(O)cc3)NC(=O)CCCCCNC(=O)CN3CCN(CC(=O)O)CCN(CC(=O)O)CCN(CC(=O)O)CC3)[C@@H](C)O)(C(=O)N[C@@H](Cc3c[nH]c4ccccc34)C(N)=O)CC2)cc1F) [Compound 36]
< 10 | {DOTA-APM}-F[azaGly]L[X2]W-NH2 (reading uncertain) [Compound 28]
< 10 | {DOTA-NH‑glycol}-[dY][2Nal]NTF[azaGly]L[X2]W-NH2 (reading uncertain) [Compound 58]
